# Source: patent US20220153854A1 (Ablynx, published 2022)
# Substitutions are numbered along the chain they refer to.
# T1: membrane bound human OX40L on CHO-KI cells (human, UniProt P23510 1-183)
# T1 sequence (looked up): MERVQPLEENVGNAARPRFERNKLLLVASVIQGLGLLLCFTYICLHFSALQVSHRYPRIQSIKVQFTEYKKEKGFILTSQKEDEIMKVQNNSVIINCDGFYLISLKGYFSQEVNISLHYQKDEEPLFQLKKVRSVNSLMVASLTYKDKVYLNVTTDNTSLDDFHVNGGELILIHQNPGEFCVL
# T2: membrane bound cyno OX40L on CHO-KI cells (cynomolgus monkey, UniProt G7NVH7 1-183)
# T2 sequence: T1 sequence (looked up) with R55Q, K73E
# T3: human OX40L (human, UniProt P23510 51-183)
# T3 construct: Protein in solution or immobilised (SPR, Gyrolab); construct not described; also called huOX40L; hOX40L
# T3 sequence (looked up): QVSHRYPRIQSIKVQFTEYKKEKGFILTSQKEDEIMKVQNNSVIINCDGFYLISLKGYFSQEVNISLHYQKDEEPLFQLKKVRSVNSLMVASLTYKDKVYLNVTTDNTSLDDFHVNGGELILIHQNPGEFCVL
# T4: cyno OX40L (cynomolgus monkey, UniProt G7NVH7 51-183)
# T4 construct: also called cyOX40L; cynomolgus monkey OX40L
# T4 sequence: T3 sequence (looked up) with R5Q, K23E
# B1: F027301552 (15B07AM) (VHH)
# VHH: DVQLVESGGGVVQPGGSLRLSCAASRSIGRYDRMGWYRHRPGEPRELVATITGGSSINYGDSVKGRFTISIDNSKNTVYLQMNSLRPEDTALYYCNFNKYQISRDTWGQGTLVTVSS
# How the values were obtained:
# [1] = biological target: T1, membrane bound human OX40L on CHO-KI …; test: cell-based or functional assay
# [2] = biological target: T2, membrane bound cyno OX40L on CHO-KI …; test: cell-based or functional assay
# human OX40L [3] = biological target: T3, human OX40L; test: SPR
# cyno OX40L [4] = biological target: T4, cyno OX40L; test: SPR
# human OX40L [5] = biological target: T3, human OX40L; test: SPR KD against parental F027300042 (15B07)
# cyno OX40L [6] = biological target: T4, cyno OX40L; test: SPR KD against parental F027300042 (15B07)
binder,measurement,setting,value
B1,IC50 (nM) PBMC assay human OX40L,[1],1.78 nM
same,IC50 (nM) PBMC assay cyno OX40L,[2],7.58 nM
same,Kd,human OX40L [3],0.0853 nM
same,Kd,cyno OX40L [4],0.108 nM
same,Fold improved affinity vs parental,human OX40L [5],53 fold
same,Fold improved affinity vs parental,cyno OX40L [6],92 fold
